# Laboratory results as given in patent US20180155451A1 (published 2018).
# T1: FcγRIIa R (human, UniProt P12318 34-217)
# T1 construct: extracellular domain; also called FcgRIIa R type; 2aR
# T1 sequence (looked up): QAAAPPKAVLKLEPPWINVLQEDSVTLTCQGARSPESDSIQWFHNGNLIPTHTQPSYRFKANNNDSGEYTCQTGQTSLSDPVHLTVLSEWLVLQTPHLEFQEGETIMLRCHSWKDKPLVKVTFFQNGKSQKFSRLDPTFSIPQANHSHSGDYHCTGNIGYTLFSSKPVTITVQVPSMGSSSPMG
# Target: T2, FcγRIa (human, UniProt P12314 16-292)
# T2 construct: extracellular domain; also called FcgRI; CD64
# T2 sequence (P12314 16-292): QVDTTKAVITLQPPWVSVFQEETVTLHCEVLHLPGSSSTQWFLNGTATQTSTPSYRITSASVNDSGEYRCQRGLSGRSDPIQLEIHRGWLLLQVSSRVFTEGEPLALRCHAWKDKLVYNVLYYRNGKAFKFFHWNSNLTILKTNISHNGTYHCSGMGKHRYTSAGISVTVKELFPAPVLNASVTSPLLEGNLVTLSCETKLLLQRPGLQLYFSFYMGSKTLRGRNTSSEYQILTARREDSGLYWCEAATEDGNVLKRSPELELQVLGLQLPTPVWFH
# Test: SPR; vs GpH7-A5/GpH7-B3/GpL16-k0=100
row,Binder,He/Con_1a
1,"GpH7-A5/GpH7-B3 variant Q295_02A/GpL16-k0 (antibody, human IgG1, kappa, heterodimerized; also called He Ab Q295_02A) heavy 1: not shown heavy 2: not shown light: DIVMTQSPLSLPVTPGEPASISCQASESLVHSNRNTYLHWYLQKPGQSPQLLIYKVSNRFSGVPDRFSGSGSGTDFTLKISRVEAEDVGVYYCSQNTHVPPTFGQGTKVEIERTVAAPSVFIFPPSDEQLKSGTASVVCLLNNFYPREAKVQWKVDNALQSGNSQESVTEQDSKDSTYSLSSTLTLSKADYEKHKVYACEVTHQGLSSPVTKSFNRGEC",104 % of control

# Target: T1, FcγRIIa R
# Test: SPR Biacore; vs GpH7-A5/GpH7-B3/GpL16-k0 =100
row,Binder,He/Con_2aR
1,"GpH7-A5/GpH7-B3 variant N325_06M/GpL16-k0 (antibody, human IgG1, kappa, also called He Ab N325_06M) heavy 1: not shown heavy 2: not shown light: DIVMTQSPLSLPVTPGEPASISCQASESLVHSNRNTYLHWYLQKPGQSPQLLIYKVSNRFSGVPDRFSGSGSGTDFTLKISRVEAEDVGVYYCSQNTHVPPTFGQGTKVEIERTVAAPSVFIFPPSDEQLKSGTASVVCLLNNFYPREAKVQWKVDNALQSGNSQESVTEQDSKDSTYSLSSTLTLSKADYEKHKVYACEVTHQGLSSPVTKSFNRGEC",152 % of control
2,"GpH7-A5/GpH7-B3 variant G237_02A/GpL16-k0 (antibody, human IgG1, kappa, also called He Ab G237_02A) heavy 1: not shown heavy 2: not shown light: DIVMTQSPLSLPVTPGEPASISCQASESLVHSNRNTYLHWYLQKPGQSPQLLIYKVSNRFSGVPDRFSGSGSGTDFTLKISRVEAEDVGVYYCSQNTHVPPTFGQGTKVEIERTVAAPSVFIFPPSDEQLKSGTASVVCLLNNFYPREAKVQWKVDNALQSGNSQESVTEQDSKDSTYSLSSTLTLSKADYEKHKVYACEVTHQGLSSPVTKSFNRGEC",126 % of control
3,"GpH7-A5/GpH7-B3 variant E333_04F/GpL16-k0 (antibody, human IgG1, kappa, also called He Ab E333_04F) heavy 1: not shown heavy 2: not shown light: DIVMTQSPLSLPVTPGEPASISCQASESLVHSNRNTYLHWYLQKPGQSPQLLIYKVSNRFSGVPDRFSGSGSGTDFTLKISRVEAEDVGVYYCSQNTHVPPTFGQGTKVEIERTVAAPSVFIFPPSDEQLKSGTASVVCLLNNFYPREAKVQWKVDNALQSGNSQESVTEQDSKDSTYSLSSTLTLSKADYEKHKVYACEVTHQGLSSPVTKSFNRGEC",102 % of control
4,"GpH7-A5/GpH7-B3 variant A330_05P/GpL16-k0 (antibody, human IgG1, kappa, also called He Ab A330_05P) heavy 1: not shown heavy 2: not shown light: DIVMTQSPLSLPVTPGEPASISCQASESLVHSNRNTYLHWYLQKPGQSPQLLIYKVSNRFSGVPDRFSGSGSGTDFTLKISRVEAEDVGVYYCSQNTHVPPTFGQGTKVEIERTVAAPSVFIFPPSDEQLKSGTASVVCLLNNFYPREAKVQWKVDNALQSGNSQESVTEQDSKDSTYSLSSTLTLSKADYEKHKVYACEVTHQGLSSPVTKSFNRGEC",115 % of control
5,"GpH7-A5/GpH7-B3 variant G236_14T/GpL16-k0 (antibody, human IgG1, kappa, also called He Ab G236_14T) heavy 1: not shown heavy 2: not shown light: DIVMTQSPLSLPVTPGEPASISCQASESLVHSNRNTYLHWYLQKPGQSPQLLIYKVSNRFSGVPDRFSGSGSGTDFTLKISRVEAEDVGVYYCSQNTHVPPTFGQGTKVEIERTVAAPSVFIFPPSDEQLKSGTASVVCLLNNFYPREAKVQWKVDNALQSGNSQESVTEQDSKDSTYSLSSTLTLSKADYEKHKVYACEVTHQGLSSPVTKSFNRGEC",103 % of control
6,"GpH7-A5/GpH7-B3 variant E269_09D/GpL16-k0 (antibody, human IgG1, kappa, also called He Ab E269_09D) heavy 1: not shown heavy 2: not shown light: DIVMTQSPLSLPVTPGEPASISCQASESLVHSNRNTYLHWYLQKPGQSPQLLIYKVSNRFSGVPDRFSGSGSGTDFTLKISRVEAEDVGVYYCSQNTHVPPTFGQGTKVEIERTVAAPSVFIFPPSDEQLKSGTASVVCLLNNFYPREAKVQWKVDNALQSGNSQESVTEQDSKDSTYSLSSTLTLSKADYEKHKVYACEVTHQGLSSPVTKSFNRGEC",105 % of control
7,"GpH7-A5/GpH7-B3 variant A327_10E/GpL16-k0 (antibody, human IgG1, kappa, also called He Ab A327_10E) heavy 1: not shown heavy 2: not shown light: DIVMTQSPLSLPVTPGEPASISCQASESLVHSNRNTYLHWYLQKPGQSPQLLIYKVSNRFSGVPDRFSGSGSGTDFTLKISRVEAEDVGVYYCSQNTHVPPTFGQGTKVEIERTVAAPSVFIFPPSDEQLKSGTASVVCLLNNFYPREAKVQWKVDNALQSGNSQESVTEQDSKDSTYSLSSTLTLSKADYEKHKVYACEVTHQGLSSPVTKSFNRGEC",110 % of control
8,"GpH7-A5/GpH7-B3 variant A330_15Y/GpL16-k0 (antibody, human IgG1, kappa, also called He Ab A330_15Y) heavy 1: not shown heavy 2: not shown light: DIVMTQSPLSLPVTPGEPASISCQASESLVHSNRNTYLHWYLQKPGQSPQLLIYKVSNRFSGVPDRFSGSGSGTDFTLKISRVEAEDVGVYYCSQNTHVPPTFGQGTKVEIERTVAAPSVFIFPPSDEQLKSGTASVVCLLNNFYPREAKVQWKVDNALQSGNSQESVTEQDSKDSTYSLSSTLTLSKADYEKHKVYACEVTHQGLSSPVTKSFNRGEC",102 % of control
9,"GpH7-A5/GpH7-B3 variant E333_08L/GpL16-k0 (antibody, human IgG1, kappa, also called He Ab E333_08L) heavy 1: not shown heavy 2: not shown light: DIVMTQSPLSLPVTPGEPASISCQASESLVHSNRNTYLHWYLQKPGQSPQLLIYKVSNRFSGVPDRFSGSGSGTDFTLKISRVEAEDVGVYYCSQNTHVPPTFGQGTKVEIERTVAAPSVFIFPPSDEQLKSGTASVVCLLNNFYPREAKVQWKVDNALQSGNSQESVTEQDSKDSTYSLSSTLTLSKADYEKHKVYACEVTHQGLSSPVTKSFNRGEC",103 % of control
10,"GpH7-A5/GpH7-B3 variant E333_15Y/GpL16-k0 (antibody, human IgG1, kappa, also called He Ab E333_15Y) heavy 1: not shown heavy 2: not shown light: DIVMTQSPLSLPVTPGEPASISCQASESLVHSNRNTYLHWYLQKPGQSPQLLIYKVSNRFSGVPDRFSGSGSGTDFTLKISRVEAEDVGVYYCSQNTHVPPTFGQGTKVEIERTVAAPSVFIFPPSDEQLKSGTASVVCLLNNFYPREAKVQWKVDNALQSGNSQESVTEQDSKDSTYSLSSTLTLSKADYEKHKVYACEVTHQGLSSPVTKSFNRGEC",101 % of control
11,"GpH7-A5/GpH7-B3 variant E333_09D/GpL16-k0 (antibody, human IgG1, kappa, also called He Ab E333_09D) heavy 1: not shown heavy 2: not shown light: DIVMTQSPLSLPVTPGEPASISCQASESLVHSNRNTYLHWYLQKPGQSPQLLIYKVSNRFSGVPDRFSGSGSGTDFTLKISRVEAEDVGVYYCSQNTHVPPTFGQGTKVEIERTVAAPSVFIFPPSDEQLKSGTASVVCLLNNFYPREAKVQWKVDNALQSGNSQESVTEQDSKDSTYSLSSTLTLSKADYEKHKVYACEVTHQGLSSPVTKSFNRGEC",103 % of control
12,"GpH7-A5/GpH7-B3 variant G237_04F/GpL16-k0 (antibody, human IgG1, kappa, also called He Ab G237_04F) heavy 1: not shown heavy 2: not shown light: DIVMTQSPLSLPVTPGEPASISCQASESLVHSNRNTYLHWYLQKPGQSPQLLIYKVSNRFSGVPDRFSGSGSGTDFTLKISRVEAEDVGVYYCSQNTHVPPTFGQGTKVEIERTVAAPSVFIFPPSDEQLKSGTASVVCLLNNFYPREAKVQWKVDNALQSGNSQESVTEQDSKDSTYSLSSTLTLSKADYEKHKVYACEVTHQGLSSPVTKSFNRGEC",126 % of control
13,"GpH7-A5/GpH7-B3 variant A330_19Q/GpL16-k0 (antibody, human IgG1, kappa, also called He Ab A330_19Q) heavy 1: not shown heavy 2: not shown light: DIVMTQSPLSLPVTPGEPASISCQASESLVHSNRNTYLHWYLQKPGQSPQLLIYKVSNRFSGVPDRFSGSGSGTDFTLKISRVEAEDVGVYYCSQNTHVPPTFGQGTKVEIERTVAAPSVFIFPPSDEQLKSGTASVVCLLNNFYPREAKVQWKVDNALQSGNSQESVTEQDSKDSTYSLSSTLTLSKADYEKHKVYACEVTHQGLSSPVTKSFNRGEC",104 % of control
14,"GpH7-A5/GpH7-B3 variant A330_12R/GpL16-k0 (antibody, human IgG1, kappa, also called He Ab A330_12R) heavy 1: not shown heavy 2: not shown light: DIVMTQSPLSLPVTPGEPASISCQASESLVHSNRNTYLHWYLQKPGQSPQLLIYKVSNRFSGVPDRFSGSGSGTDFTLKISRVEAEDVGVYYCSQNTHVPPTFGQGTKVEIERTVAAPSVFIFPPSDEQLKSGTASVVCLLNNFYPREAKVQWKVDNALQSGNSQESVTEQDSKDSTYSLSSTLTLSKADYEKHKVYACEVTHQGLSSPVTKSFNRGEC",104 % of control
15,"GpH7-A5/GpH7-B3 variant G237_06M/GpL16-k0 (antibody, human IgG1, kappa, also called He Ab G237_06M) heavy 1: not shown heavy 2: not shown light: DIVMTQSPLSLPVTPGEPASISCQASESLVHSNRNTYLHWYLQKPGQSPQLLIYKVSNRFSGVPDRFSGSGSGTDFTLKISRVEAEDVGVYYCSQNTHVPPTFGQGTKVEIERTVAAPSVFIFPPSDEQLKSGTASVVCLLNNFYPREAKVQWKVDNALQSGNSQESVTEQDSKDSTYSLSSTLTLSKADYEKHKVYACEVTHQGLSSPVTKSFNRGEC",133 % of control
16,"GpH7-A5/GpH7-B3 variant A330_01G/GpL16-k0 (antibody, human IgG1, kappa, also called He Ab A330_01G) heavy 1: not shown heavy 2: not shown light: DIVMTQSPLSLPVTPGEPASISCQASESLVHSNRNTYLHWYLQKPGQSPQLLIYKVSNRFSGVPDRFSGSGSGTDFTLKISRVEAEDVGVYYCSQNTHVPPTFGQGTKVEIERTVAAPSVFIFPPSDEQLKSGTASVVCLLNNFYPREAKVQWKVDNALQSGNSQESVTEQDSKDSTYSLSSTLTLSKADYEKHKVYACEVTHQGLSSPVTKSFNRGEC",109 % of control
17,"GpH7-A5/GpH7-B3 variant E333_07I/GpL16-k0 (antibody, human IgG1, kappa, also called He Ab E333_07I) heavy 1: not shown heavy 2: not shown light: DIVMTQSPLSLPVTPGEPASISCQASESLVHSNRNTYLHWYLQKPGQSPQLLIYKVSNRFSGVPDRFSGSGSGTDFTLKISRVEAEDVGVYYCSQNTHVPPTFGQGTKVEIERTVAAPSVFIFPPSDEQLKSGTASVVCLLNNFYPREAKVQWKVDNALQSGNSQESVTEQDSKDSTYSLSSTLTLSKADYEKHKVYACEVTHQGLSSPVTKSFNRGEC",104 % of control
18,"GpH7-A5/GpH7-B3 variant E333_05P/GpL16-k0 (antibody, human IgG1, kappa, also called He Ab E333_05P) heavy 1: not shown heavy 2: not shown light: DIVMTQSPLSLPVTPGEPASISCQASESLVHSNRNTYLHWYLQKPGQSPQLLIYKVSNRFSGVPDRFSGSGSGTDFTLKISRVEAEDVGVYYCSQNTHVPPTFGQGTKVEIERTVAAPSVFIFPPSDEQLKSGTASVVCLLNNFYPREAKVQWKVDNALQSGNSQESVTEQDSKDSTYSLSSTLTLSKADYEKHKVYACEVTHQGLSSPVTKSFNRGEC",105 % of control
19,"GpH7-A5/GpH7-B3 variant A327_09D/GpL16-k0 (antibody, human IgG1, kappa, also called He Ab A327_09D) heavy 1: not shown heavy 2: not shown light: DIVMTQSPLSLPVTPGEPASISCQASESLVHSNRNTYLHWYLQKPGQSPQLLIYKVSNRFSGVPDRFSGSGSGTDFTLKISRVEAEDVGVYYCSQNTHVPPTFGQGTKVEIERTVAAPSVFIFPPSDEQLKSGTASVVCLLNNFYPREAKVQWKVDNALQSGNSQESVTEQDSKDSTYSLSSTLTLSKADYEKHKVYACEVTHQGLSSPVTKSFNRGEC",124 % of control
20,"GpH7-A5/GpH7-B3 variant A330_11K/GpL16-k0 (antibody, human IgG1, kappa, also called He Ab A330_11K) heavy 1: not shown heavy 2: not shown light: DIVMTQSPLSLPVTPGEPASISCQASESLVHSNRNTYLHWYLQKPGQSPQLLIYKVSNRFSGVPDRFSGSGSGTDFTLKISRVEAEDVGVYYCSQNTHVPPTFGQGTKVEIERTVAAPSVFIFPPSDEQLKSGTASVVCLLNNFYPREAKVQWKVDNALQSGNSQESVTEQDSKDSTYSLSSTLTLSKADYEKHKVYACEVTHQGLSSPVTKSFNRGEC",110 % of control
